Positions count from the first letter of the chain named. Ends that are not written are not given here.
B1: KKII/3#6 (designed binder)
chain: MHSFCAFKADDGHCKANHQRFFFNIFTRQCEEFSYGGCGGNQNRFESLEECKKMCTRD
notes: LACI-K1 Kunitz domain variant
B2: KKI/3 (b) (designed binder)
chain: B1 chain with H13P, N17I, Q19L, S34I, G39E
modifications: not fully specified; cysteine pairing not given here
notes: LACI-K1 variant from the first phase of screening; also called KKII/3 (b); clone b
B3: KKI/3 (a) (designed binder)
chain: B1 chain with H13R, A16G, N17A, Q19L, S34I, G39E
modifications: not fully specified; cysteine pairing not given here
notes: LACI-K1 variant from the first phase of screening; also called KKII/3 (a); clone a
B4: LACI-K1 (first Kunitz domain of LACI, residues 50-107 of SEQ ID NO:25) (other)
chain: B1 chain with H13P, N17I, H18M, Q19K, S34I, G39E
notes: also called parental molecule
B5: KKII/3#5 (designed binder)
chain: B1 chain with N17S, H18L, Q19P, S34I
notes: LACI-K1 Kunitz domain variant

Key:
[1] = target: T1, human plasma Kallikrein (Calbiochem, San Diego, Calif., # 420302) (human, UniProt P03952 20-638); assay: display-phage binding to kallikrein beads; pfu eluted / input (10^10 pfu)
T1 construct: mature; Bought enzyme coupled to agarose beads with Reactigel (6x); also called pKA; human Kallikrein

[2] = target: T2, Plasmin; assay: inhibition; method not described
T2 construct: Protease target in the specificity test

[3] = target: T1, human plasma Kallikrein (Calbiochem, …); assay: inhibition; method not described
[4] = target: T1, human plasma Kallikrein (Calbiochem, …); assay: preliminary inhibition measurements; method not described
[5] = target: T1, human plasma Kallikrein (Calbiochem, …); assay: display-phage binding to kallikrein beads; fraction bound relative to parental
[6] = target: T3, Trypsin; assay: display-phage binding to protease target; trypsin, two washes
T3 construct: Protease target in the specificity test

[7] = target: T3, Trypsin; assay: display-phage binding to protease target
[8] = target: T2, Plasmin; assay: display-phage binding to protease target
[9] = target: T4, Thrombin; assay: display-phage binding to protease target
T4 construct: Protease target in the specificity test

[10] = target: T1, human plasma Kallikrein (Calbiochem, …); assay: display-phage binding to protease target

T1 sequence (P03952 20-638 limits assumed): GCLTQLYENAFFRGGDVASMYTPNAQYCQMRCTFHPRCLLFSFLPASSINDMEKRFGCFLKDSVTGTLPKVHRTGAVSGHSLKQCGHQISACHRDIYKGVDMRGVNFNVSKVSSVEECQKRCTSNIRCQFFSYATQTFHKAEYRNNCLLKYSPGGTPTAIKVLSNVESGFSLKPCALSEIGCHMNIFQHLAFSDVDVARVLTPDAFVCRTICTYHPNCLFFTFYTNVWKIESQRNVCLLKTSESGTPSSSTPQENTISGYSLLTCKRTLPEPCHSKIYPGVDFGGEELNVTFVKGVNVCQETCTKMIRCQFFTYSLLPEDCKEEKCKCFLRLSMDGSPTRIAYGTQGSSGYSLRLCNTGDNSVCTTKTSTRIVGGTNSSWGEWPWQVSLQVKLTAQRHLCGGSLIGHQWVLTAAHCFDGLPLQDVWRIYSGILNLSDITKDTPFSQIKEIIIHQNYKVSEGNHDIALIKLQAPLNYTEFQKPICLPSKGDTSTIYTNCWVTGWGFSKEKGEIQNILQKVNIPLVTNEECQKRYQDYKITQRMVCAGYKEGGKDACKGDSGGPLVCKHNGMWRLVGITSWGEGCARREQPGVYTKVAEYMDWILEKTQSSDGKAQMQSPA
T2 sequence (P00747 97-580, chain 1 of 2): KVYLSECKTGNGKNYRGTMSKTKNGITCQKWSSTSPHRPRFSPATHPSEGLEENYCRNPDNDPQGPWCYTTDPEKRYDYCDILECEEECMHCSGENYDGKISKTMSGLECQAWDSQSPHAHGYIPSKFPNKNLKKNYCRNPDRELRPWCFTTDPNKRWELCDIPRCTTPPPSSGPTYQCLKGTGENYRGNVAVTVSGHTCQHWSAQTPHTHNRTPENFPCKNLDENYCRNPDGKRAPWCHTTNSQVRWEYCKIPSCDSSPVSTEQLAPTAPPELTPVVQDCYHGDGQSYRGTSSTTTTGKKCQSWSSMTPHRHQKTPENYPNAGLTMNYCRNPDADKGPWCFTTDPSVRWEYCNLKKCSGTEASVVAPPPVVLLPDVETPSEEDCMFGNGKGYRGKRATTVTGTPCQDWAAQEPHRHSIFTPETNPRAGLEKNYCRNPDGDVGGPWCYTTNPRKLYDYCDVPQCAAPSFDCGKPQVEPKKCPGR
T2 sequence (P00747 581-810, chain 2 of 2): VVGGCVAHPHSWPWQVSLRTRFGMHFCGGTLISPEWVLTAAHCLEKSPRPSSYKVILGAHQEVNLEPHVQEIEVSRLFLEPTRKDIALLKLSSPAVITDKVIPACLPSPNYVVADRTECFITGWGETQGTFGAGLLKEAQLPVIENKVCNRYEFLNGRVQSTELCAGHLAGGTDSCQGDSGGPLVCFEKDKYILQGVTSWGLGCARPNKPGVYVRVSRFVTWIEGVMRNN

Row | Fraction Bound [1] | Ki [2] | Ki ratio against wild-type LACI and BPTI [3] | Ki [4] | Relative Binding [5] | relative binding (compared to the parental phage display) [6] | relative binding (compared to the parental phage display) [7] | relative binding (compared to the parental phage display) [8] | relative binding (compared to the parental phage display) [9] | relative binding (compared to the parental phage display) [10] | Binder
1 | 0.0087 fraction of input pfu | 10 µM | > 100 times | < 0.0005 µM | 2070 fold relative to LACI(K1) display-phage | – | – | – | – | – | B1
2 | 0.0022 fraction of input pfu | – | – | – | 524 fold relative to LACI(K1) display-phage | – | – | – | – | – | B2
3 | 3.2e-05 fraction of input pfu | – | – | – | 761 fold relative to LACI(K1) display-phage | – | – | – | – | – | B3
4 | 4.2e-06 fraction of input pfu | – | – | – | 1 fold relative to LACI(K1) display-phage | 1 fold relative to parental phage display | 1 fold relative to parental phage display | 1 fold relative to parental phage display | 1 fold relative to parental phage display | 1 fold relative to parental phage display | B4
5 | 0.0039 fraction of input pfu | – | – | – | 928 fold relative to LACI(K1) display-phage | – | – | – | – | – | B5

Reference: patent publication US20060264603A1 (DYAX, published 2006)
